Consider one substance from publication PMC11804907.

Assay in all cases: synthetic bead recruitment assay in embryos (fluorescence intensity at ALFA-tag-Nanobody-coupled beads)
One test concerns the target AurA-GFP (UniProt Q27393). The conditions noted are these: beads injected into embryos expressing mCherry-TACC and AurA-GFP with mRNA encoding ALFA-tagged Spd-2; beads-only background est. 0.5; parent: est. 2.1; read off a plot.
A further test deals with Polo-GFP (UniProt P52304). Conditions: beads injected into embryos expressing RFP-Cnn and Polo-GFP with mRNA encoding ALFA-tagged Spd-2; beads-only background est. 1.0; parent: est. 2.0; read off a plot.
Chain of UniProt P52304 (P52304 whole entry): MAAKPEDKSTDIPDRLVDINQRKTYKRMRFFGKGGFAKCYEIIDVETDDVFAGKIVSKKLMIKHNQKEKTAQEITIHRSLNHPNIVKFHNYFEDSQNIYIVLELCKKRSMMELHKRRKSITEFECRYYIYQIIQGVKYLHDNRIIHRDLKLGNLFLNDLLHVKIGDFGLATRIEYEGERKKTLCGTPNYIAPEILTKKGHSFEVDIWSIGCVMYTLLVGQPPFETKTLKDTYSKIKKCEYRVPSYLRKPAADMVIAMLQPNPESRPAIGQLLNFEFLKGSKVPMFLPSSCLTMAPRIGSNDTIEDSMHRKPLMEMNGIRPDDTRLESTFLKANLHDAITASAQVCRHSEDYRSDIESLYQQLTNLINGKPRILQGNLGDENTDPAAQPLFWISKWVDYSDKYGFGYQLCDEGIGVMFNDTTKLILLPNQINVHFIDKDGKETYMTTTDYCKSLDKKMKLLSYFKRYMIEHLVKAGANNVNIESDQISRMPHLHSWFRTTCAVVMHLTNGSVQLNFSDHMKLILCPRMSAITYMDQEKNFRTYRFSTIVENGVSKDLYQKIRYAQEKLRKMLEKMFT
The next test addresses mCherry-TACC (UniProt Q9VN51). Conditions: beads injected into embryos expressing mCherry-TACC and AurA-GFP with mRNA encoding ALFA-tagged Spd-2; beads-only background est. 0.65; parent: est. 2.0; read off a plot.
Chain of UniProt Q9VN51 (Q9VN51 entry or part of it): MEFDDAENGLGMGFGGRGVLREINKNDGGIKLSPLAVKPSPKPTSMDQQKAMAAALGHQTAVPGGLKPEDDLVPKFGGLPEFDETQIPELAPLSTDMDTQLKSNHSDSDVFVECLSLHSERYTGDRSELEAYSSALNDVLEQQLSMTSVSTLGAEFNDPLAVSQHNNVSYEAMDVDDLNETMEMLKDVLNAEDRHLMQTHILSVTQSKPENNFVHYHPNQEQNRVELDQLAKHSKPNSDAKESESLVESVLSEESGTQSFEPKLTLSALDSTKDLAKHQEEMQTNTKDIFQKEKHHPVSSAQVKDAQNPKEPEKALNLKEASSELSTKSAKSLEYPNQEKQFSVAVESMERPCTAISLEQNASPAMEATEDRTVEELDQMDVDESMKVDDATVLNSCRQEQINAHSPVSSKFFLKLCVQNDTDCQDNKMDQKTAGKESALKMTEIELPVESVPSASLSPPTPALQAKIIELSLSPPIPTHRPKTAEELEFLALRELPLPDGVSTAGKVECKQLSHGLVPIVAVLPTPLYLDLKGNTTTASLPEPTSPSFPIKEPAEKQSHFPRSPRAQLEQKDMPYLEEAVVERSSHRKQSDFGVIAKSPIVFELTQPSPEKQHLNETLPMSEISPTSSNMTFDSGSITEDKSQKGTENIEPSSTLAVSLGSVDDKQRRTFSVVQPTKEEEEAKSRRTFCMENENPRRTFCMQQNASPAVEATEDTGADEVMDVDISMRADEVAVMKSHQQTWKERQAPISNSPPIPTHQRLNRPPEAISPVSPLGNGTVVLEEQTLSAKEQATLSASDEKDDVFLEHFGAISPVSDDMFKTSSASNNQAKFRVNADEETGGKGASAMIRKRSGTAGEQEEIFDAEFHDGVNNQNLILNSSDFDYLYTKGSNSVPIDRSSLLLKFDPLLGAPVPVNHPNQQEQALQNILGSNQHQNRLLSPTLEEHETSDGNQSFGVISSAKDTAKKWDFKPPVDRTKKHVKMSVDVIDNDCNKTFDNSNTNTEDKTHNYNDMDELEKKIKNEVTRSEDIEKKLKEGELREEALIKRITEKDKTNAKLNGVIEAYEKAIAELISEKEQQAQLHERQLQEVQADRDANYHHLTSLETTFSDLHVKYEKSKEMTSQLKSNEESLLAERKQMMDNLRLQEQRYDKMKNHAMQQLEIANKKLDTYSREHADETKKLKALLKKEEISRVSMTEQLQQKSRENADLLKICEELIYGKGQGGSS
A further test concerns the target RFP-Cnn (UniProt P54623). Conditions: beads injected into embryos expressing RFP-Cnn and Polo-GFP with mRNA encoding ALFA-tagged Spd-2; beads-only background est. 0.75; parent: est. 2.4; read off a plot.
Chain of UniProt P54623 (P54623 whole entry): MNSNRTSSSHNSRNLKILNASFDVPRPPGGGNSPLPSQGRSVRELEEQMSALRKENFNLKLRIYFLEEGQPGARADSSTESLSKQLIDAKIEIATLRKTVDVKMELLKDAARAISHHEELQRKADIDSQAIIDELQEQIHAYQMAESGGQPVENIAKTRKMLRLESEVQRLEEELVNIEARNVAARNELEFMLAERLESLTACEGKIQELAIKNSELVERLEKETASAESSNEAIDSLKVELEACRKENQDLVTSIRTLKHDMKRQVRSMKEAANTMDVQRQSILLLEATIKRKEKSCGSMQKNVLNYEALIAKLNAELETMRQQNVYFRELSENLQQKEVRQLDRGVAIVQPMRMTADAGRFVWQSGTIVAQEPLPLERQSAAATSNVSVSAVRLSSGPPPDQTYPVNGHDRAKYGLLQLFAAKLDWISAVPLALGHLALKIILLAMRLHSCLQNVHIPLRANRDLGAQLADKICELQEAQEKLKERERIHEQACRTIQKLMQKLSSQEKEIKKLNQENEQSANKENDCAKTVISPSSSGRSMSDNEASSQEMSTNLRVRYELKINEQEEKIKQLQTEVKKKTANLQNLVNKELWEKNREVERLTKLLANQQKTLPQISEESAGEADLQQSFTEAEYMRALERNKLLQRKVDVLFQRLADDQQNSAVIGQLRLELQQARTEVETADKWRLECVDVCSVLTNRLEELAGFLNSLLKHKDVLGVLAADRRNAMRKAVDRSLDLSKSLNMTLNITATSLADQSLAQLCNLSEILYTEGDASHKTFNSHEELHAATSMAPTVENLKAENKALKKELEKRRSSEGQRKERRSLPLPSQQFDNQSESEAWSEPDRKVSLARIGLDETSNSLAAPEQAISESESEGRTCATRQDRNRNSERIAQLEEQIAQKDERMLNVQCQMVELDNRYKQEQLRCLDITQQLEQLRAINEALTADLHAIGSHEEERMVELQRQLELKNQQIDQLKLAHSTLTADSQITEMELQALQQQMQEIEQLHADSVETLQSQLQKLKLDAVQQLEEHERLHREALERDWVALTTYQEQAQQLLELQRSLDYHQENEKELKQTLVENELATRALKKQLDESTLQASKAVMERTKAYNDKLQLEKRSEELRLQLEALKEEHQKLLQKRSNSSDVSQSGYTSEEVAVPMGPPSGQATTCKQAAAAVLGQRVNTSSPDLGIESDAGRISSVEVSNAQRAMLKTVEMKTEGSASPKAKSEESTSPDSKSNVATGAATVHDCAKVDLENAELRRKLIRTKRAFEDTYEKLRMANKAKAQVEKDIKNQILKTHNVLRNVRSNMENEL

Chain of UniProt Q27393 (Q27393 entry or part of it): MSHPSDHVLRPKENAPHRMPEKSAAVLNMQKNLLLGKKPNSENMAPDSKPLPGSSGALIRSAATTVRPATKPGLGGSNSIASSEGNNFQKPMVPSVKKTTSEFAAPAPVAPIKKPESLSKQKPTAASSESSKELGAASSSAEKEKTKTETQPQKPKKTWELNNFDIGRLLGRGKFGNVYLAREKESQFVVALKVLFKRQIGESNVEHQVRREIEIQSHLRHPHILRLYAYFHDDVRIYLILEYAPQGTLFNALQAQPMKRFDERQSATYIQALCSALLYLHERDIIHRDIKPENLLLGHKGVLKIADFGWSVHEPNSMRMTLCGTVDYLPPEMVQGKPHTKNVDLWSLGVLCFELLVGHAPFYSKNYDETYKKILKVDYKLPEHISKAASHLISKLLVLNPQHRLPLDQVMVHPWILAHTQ

In the case of “WT Spd-2-ALFA (from UniProt Q9VV79) ∆Polo (all 34 S-S/T motifs mutated to T-S/T; individual positions not printed)”, the response with AurA-GFP came to 2.3 A.U; with Polo-GFP, 0.95 A.U; with mCherry-TACC, 2.3 A.U; in the test with RFP-Cnn, 0.85 A.U.
